Experimental findings from doi:10.1101/384248 are described below.

The target of the experiment is p53 (human (endogenous in HCT 116, MCF7, U2OS)), P04637. The experiment is described as follows: co-IP. The settings on record: remark: other sources report otherwise.
Chain of p53 (human (endogenous in HCT 116, MCF7, U2OS)), P04637 (P04637 whole entry): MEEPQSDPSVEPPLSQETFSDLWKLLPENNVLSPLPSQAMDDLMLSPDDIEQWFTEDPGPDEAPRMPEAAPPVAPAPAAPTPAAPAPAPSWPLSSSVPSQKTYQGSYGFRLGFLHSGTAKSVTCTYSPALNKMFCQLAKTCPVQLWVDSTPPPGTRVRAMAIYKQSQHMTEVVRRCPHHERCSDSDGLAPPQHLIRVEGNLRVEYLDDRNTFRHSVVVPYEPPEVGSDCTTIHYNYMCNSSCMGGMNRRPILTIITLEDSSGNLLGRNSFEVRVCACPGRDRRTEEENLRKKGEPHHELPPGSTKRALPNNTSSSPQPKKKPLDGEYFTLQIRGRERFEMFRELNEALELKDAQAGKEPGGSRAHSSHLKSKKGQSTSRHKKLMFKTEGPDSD

B1: MDMX, O15151 1-490 (natural protein)
chain: MTSFSTSAQCSTSDSACRISPGQINQVRPKLPLLKILHAAGAQGEMFTVKEVMHYLGQYIMVKQLYDQQEQHMVYCGGDLLGELLGRQSFSVKDPSPLYDMLRKNLVTLATATTDAAQTLALAQDHSMDIPSQDQLKQSAEESSTSRKRTTEDDIPTLPTSEHKCIHSREDEDLIENLAQDETSRLDLGFEEWDVAGLPWWFLGNLRSNYTPRSNGSTDLQTNQDVGTAIVSDTTDDLWFLNESVSEQLGVGIKVEAADTEQTSEEVGKVSDKKVIEVGKNDDLEDSKSLSDDTDVEVTSEDEWQCTECKKFNSPSKRYCFRCWALRKDWYSDCSKLTHSLSTSDITAIPEKENEGNDVPDCRRTISAPVVRPKDAYIKKENSKLFDPCNSVEFLDLAHSSESQETISSMGEQLDNLSEQRTDTENMEDCQNLLKPCSLCEKRPRDGNIIHGRTGHLVTCFHCARRLKKAGASCPICKKEIQLVIKVFIA
In turn, B1 came in with a percent decrease of MDMX bound to p53 in cells treated with RITA of 43%.
